From patent publication US20230157952A1, “METHOD FOR IMPROVING THE STABILITY OF A PHARMACEUTICAL COMPOSITION COMPRISING A HIGH PENETRATION DRUG, AND THE PHARMACEUTICAL COMPOSITION OBTAINED THEREFROM” (Techfields Inc., priority 2020, published 2023)
Values belong to the compound of their own block, whether it stands above or below them. Non-standard residues stand in square brackets, D forms with d. *: point of attachment. Arg(NO2) = N=C(NCCC[C@H](N)C(=O)O)N[N+](=O)[O-]; OiPr = CC(C)O*

Assay: Effect of pH value on the stability of the solution (purity)
Format: physicochemical
Conditions: for Purity(%) from day 0-28: 25° C.; for Purity(%) at day 1 / Purity(%) at day 30 / Purity(%) at day 90 / Purity(%) at day 180 / Purity(%) at day 360: 5% solution
[1] = day 0, pH 1.0, 7% in 25% ethanol
[2] = day 0, pH 2.0, 7% in 25% ethanol
[3] = day 0, pH 3.0, 7% in 25% ethanol
[4] = day 0, pH 3.7, 7% in 25% ethanol
[5] = day 0, pH 4.0, 7% in 25% ethanol
[6] = day 0, pH 4.3, 7% in 25% ethanol
[7] = day 0, pH 4.6, 7% in 25% ethanol
[8] = day 0, pH 5.0, 7% in 25% ethanol
[9] = day 0, pH 6.0, 7% in 25% ethanol
[10] = day 0, pH 7.0, 7% in 25% ethanol
[11] = day 0, pH 8.0, 7% in 25% ethanol
[12] = day 28, pH 1.0, 7% in 25% ethanol
[13] = day 28, pH 2.0, 7% in 25% ethanol
[14] = day 28, pH 3.0, 7% in 25% ethanol
[15] = day 28, pH 3.7, 7% in 25% ethanol
[16] = day 28, pH 4.0, 7% in 25% ethanol
[17] = day 28, pH 4.3, 7% in 25% ethanol
[18] = day 28, pH 4.6, 7% in 25% ethanol
[19] = day 28, pH 5.0, 7% in 25% ethanol
[20] = day 28, pH 6.0, 7% in 25% ethanol
[21] = day 28, pH 7.0, 7% in 25% ethanol
[22] = day 28, pH 8.0, 7% in 25% ethanol
[23] = 25% ethanol (after multiple recrystalization), pH 3.7, 25° C.
[24] = 25% ethanol with 0.5 equivalent sodium acetate, pH 3.7, 25° C.
[25] = 25% ethanol with 1 equivalent sodium acetate, pH 4.6, 25° C.
[26] = 25% ethanol with 1.5 equivalent sodium acetate, pH 5.6, 25° C.
[27] = 25% ethanol with HCl, pH 1.0, 25° C.
[28] = 25% ethanol with HCl, pH 2.0, 25° C.
[29] = 25% ethanol with NaOH, pH 7, 25° C.
[30] = 25% ethanol with NaOH, pH 8, 25° C.

- Purity(%) from day 0-28 [1]: 97.6 ± 0.4%
- Purity(%) from day 0-28 [2]: 98.0 ± 0.3%
- Purity(%) from day 0-28 [3]: 98.1 ± 0.2%
- Purity(%) from day 0-28 [4]: 98.3 ± 0.3%
- Purity(%) from day 0-28 [5]: 98.4 ± 0.3%
- Purity(%) from day 0-28 [6]: 98.4 ± 0.2%
- Purity(%) from day 0-28 [7]: 98.3 ± 0.2%
- Purity(%) from day 0-28 [8]: 98.3 ± 0.4%
- Purity(%) from day 0-28 [9]: 98.2 ± 0.3%
- Purity(%) from day 0-28 [10]: 97.9 ± 0.3%
- Purity(%) from day 0-28 [11]: 97.6 ± 0.5%
- Purity(%) from day 0-28 [12]: 68.4 ± 0.4%
- Purity(%) from day 0-28 [13]: 87.3 ± 0.3%
- Purity(%) from day 0-28 [14]: 87.3 ± 0.3%
- Purity(%) from day 0-28 [15]: 95.0 ± 0.2%
- Purity(%) from day 0-28 [16]: 96.1 ± 0.3%
- Purity(%) from day 0-28 [17]: 96.3 ± 0.3%
- Purity(%) from day 0-28 [18]: 96.3 ± 0.2%
- Purity(%) from day 0-28 [19]: 89.7 ± 0.3%
- Purity(%) from day 0-28 [20]: 87.3 ± 0.3%
- Purity(%) from day 0-28 [21]: 48.3 ± 0.4%
- Purity(%) from day 0-28 [22]: 34.2 ± 0.3%
Compound: CC(C)Cc1ccc([C@@H](C)C(=O)OCCC2CCNCC2)cc1.Cl (racemic) [C-8, 4-piperidineethyl (R,S)-2-(p-isobutylphenyl)propionate•HCl salt]

Compound: H-Val-Pro-Gly-Pro-Arg(NO2)—OCH(CH3)2•HCl salt (H-VPGP[Arg(NO2)]-OiPr; also: HCl salt)
- Purity(%) at day 1 [23]: 98.6 ± 0.2%
- Purity(%) at day 30 [23]: 98.1 ± 0.2%
- Purity(%) at day 90 [23]: 97.2 ± 0.1%
- Purity(%) at day 180 [23]: 95.4 ± 0.1%
- Purity(%) at day 360 [23]: 92.1 ± 0.2%
- Purity(%) at day 1 [24]: 98.6 ± 0.2%
- Purity(%) at day 30 [24]: 98.2 ± 0.1%
- Purity(%) at day 90 [24]: 97.1 ± 0.2%
- Purity(%) at day 180 [24]: 95.6 ± 0.2%
- Purity(%) at day 360 [24]: 92.0 ± 0.2%
- Purity(%) at day 1 [25]: 98.6 ± 0.2%
- Purity(%) at day 30 [25]: 98.2 ± 0.2%
- Purity(%) at day 90 [25]: 97.0 ± 0.1%
- Purity(%) at day 180 [25]: 95.6 ± 0.2%
- Purity(%) at day 360 [25]: 92.1 ± 0.2%
- Purity(%) at day 1 [26]: 98.5 ± 0.2%
- Purity(%) at day 30 [26]: 97.0 ± 0.2%
- Purity(%) at day 90 [26]: 93.8 ± 0.1%
- Purity(%) at day 180 [26]: 88.1 ± 0.2%
- Purity(%) at day 360 [26]: 80.1 ± 0.3%
- Purity(%) at day 1 [27]: 98.3 ± 0.2%
- Purity(%) at day 30 [27]: 85.0 ± 0.2%
- Purity(%) at day 90 [27]: 59.5 ± 0.2%
- Purity(%) at day 180 [27]: 43.5 ± 0.3%
- Purity(%) at day 360 [27]: 17.6 ± 0.3%
- Purity(%) at day 1 [28]: 98.4 ± 0.2%
- Purity(%) at day 30 [28]: 91.7 ± 0.2%
- Purity(%) at day 90 [28]: 84.7 ± 0.3%
- Purity(%) at day 180 [28]: 71.7 ± 0.3%
- Purity(%) at day 360 [28]: 52.7 ± 0.3%
- Purity(%) at day 1 [29]: 98.3 ± 0.3%
- Purity(%) at day 30 [29]: 78.1 ± 0.4%
- Purity(%) at day 90 [29]: 44.1 ± 0.4%
- Purity(%) at day 180 [29]: 25.1 ± 0.4%
- Purity(%) at day 360 [29]: 0%
- Purity(%) at day 1 [30]: 98.0 ± 0.3%
- Purity(%) at day 30 [30]: 56.3 ± 0.3%
- Purity(%) at day 90 [30]: 32.3 ± 0.4%
- Purity(%) at day 180 [30]: 3.9 ± 0.4%
- Purity(%) at day 360 [30]: 0%
- Purity(%) at day 1 (25% ethanol, pH 3.0, 25° C.): 98.5 ± 0.1%
- Purity(%) at day 30 (25% ethanol, pH 3.0, 25° C.): 97.4 ± 0.2%
- Purity(%) at day 90 (25% ethanol, pH 3.0, 25° C.): 94.7 ± 0.1%
- Purity(%) at day 180 (25% ethanol, pH 3.0, 25° C.): 90.7 ± 0.2%
- Purity(%) at day 360 (25% ethanol, pH 3.0, 25° C.): 82.7 ± 0.3%

- Purity(%) from day 0-28 [1]: 97.6 ± 0.3%
- Purity(%) from day 0-28 [2]: 97.9 ± 0.4%
- Purity(%) from day 0-28 [3]: 98.0 ± 0.3%
- Purity(%) from day 0-28 [4]: 98.2 ± 0.3%
- Purity(%) from day 0-28 [5]: 98.2 ± 0.2%
- Purity(%) from day 0-28 [6]: 98.3 ± 0.3%
- Purity(%) from day 0-28 [7]: 98.2 ± 0.4%
- Purity(%) from day 0-28 [8]: 98.2 ± 0.3%
- Purity(%) from day 0-28 [9]: 98.1 ± 0.3%
- Purity(%) from day 0-28 [10]: 97.8 ± 0.3%
- Purity(%) from day 0-28 [11]: 97.5 ± 0.5%
- Purity(%) from day 0-28 [12]: 68.1 ± 0.3%
- Purity(%) from day 0-28 [13]: 87.0 ± 0.3%
- Purity(%) from day 0-28 [14]: 87.0 ± 0.2%
- Purity(%) from day 0-28 [15]: 95.1 ± 0.3%
- Purity(%) from day 0-28 [16]: 95.8 ± 0.3%
- Purity(%) from day 0-28 [17]: 95.9 ± 0.2%
- Purity(%) from day 0-28 [18]: 95.8 ± 0.3%
- Purity(%) from day 0-28 [19]: 88.5 ± 0.4%
- Purity(%) from day 0-28 [20]: 87.9 ± 0.3%
- Purity(%) from day 0-28 [21]: 47.8 ± 0.3%
- Purity(%) from day 0-28 [22]: 34.1 ± 0.4%
Compound: CC(C)Cc1ccc(C(C)C(=O)OCCN2CCCCC2)cc1.Cl (racemic) [C-10, 1-piperidineethyl (R,S)-2-(p-isobutylphenyl)propionate•HCl salt]
